Drawing on article PMC6336718, this text covers stoichiometry N for one substance.

What is called stoichiometry N is a count of units in the complex or per binding partner.

Assay [1] deals with Bacillus anthracis zinc uptake regulator protein (BaZur) (Bacillus anthracis (Sterne 34F2)). The experiment in a line: native gel or EMSA. (Mobility shift assays separate free from complexed probe on a gel.)
Assay [2] has the same target. The experiment in a line: SEC; […] (50 mM Tris HCl pH 8.0, 150 mM NaCl, 5% glycerol), […]. Background: In gel filtration, larger molecules generally elute earlier.

Take “Bacillus anthracis zinc uptake regulator protein (BaZur) (natural protein)”: the stoichiometry N in assay [1] and in assay [2] was 2 in each case.
